Laboratory results published in PMC11629141.

B1: S2B R101A scFv, solitary (scFv, V domains shown)
VH: AVTLDESGGGLQTPGGGLSLVCKASGFTFSSYSMVWVRQAPSKRLEWVAGIYSSATWTYYAPAVKGRATISRDNGQSTVRLQLNDLRAEDTGTYFCAKTSASGWTAYSASAIDAWGHGTEVIV
VL: ALTQPSSVSANPGETVKITCSGGSSYYGWYQQKSPGSAPVTVIYSNDKRPSDIPSRFSGSTSGSTATLTITGVQADDEAVYFCGGYDSNIHGGIFGAGTTLTVL
B2: S2B scFv (blocking anti‐6G11 scFv clone 2), solitary (scFv, V domains shown)
VH: AVTLDESGGGLQTPGGGLSLVCKASGFTFSSYSMVWVRQAPSKRLEWVAGIYSSATWTYYAPAVKGRATISRDNGQSTVRLQLNDLRAEDTGTYFCAKTSRSGWTAYSASAIDAWGHGTEVIV
VL: ALTQPSSVSANPGETVKITCSGGSSYYGWYQQKSPGSAPVTVIYSNDKRPSDIPSRFSGSTSGSTATLTITGVQADDEAVYFCGGYDSNIHGGIFGAGTTLTVL
B3: S2B W104A scFv, solitary (scFv, V domains shown)
VH: AVTLDESGGGLQTPGGGLSLVCKASGFTFSSYSMVWVRQAPSKRLEWVAGIYSSATWTYYAPAVKGRATISRDNGQSTVRLQLNDLRAEDTGTYFCAKTSRSGATAYSASAIDAWGHGTEVIV
VL: ALTQPSSVSANPGETVKITCSGGSSYYGWYQQKSPGSAPVTVIYSNDKRPSDIPSRFSGSTSGSTATLTITGVQADDEAVYFCGGYDSNIHGGIFGAGTTLTVL
B4: S2B Y52A scFv, solitary (scFv, V domains shown)
VH: AVTLDESGGGLQTPGGGLSLVCKASGFTFSSYSMVWVRQAPSKRLEWVAGIASSATWTYYAPAVKGRATISRDNGQSTVRLQLNDLRAEDTGTYFCAKTSRSGWTAYSASAIDAWGHGTEVIV
VL: ALTQPSSVSANPGETVKITCSGGSSYYGWYQQKSPGSAPVTVIYSNDKRPSDIPSRFSGSTSGSTATLTITGVQADDEAVYFCGGYDSNIHGGIFGAGTTLTVL
B5: S2N scFv (non‐blocking anti‐6G11 scFv clone 2), solitary (scFv, V domains shown)
VH: AVTLDESGGGLQTPGGGLSLVCKASGFSFSDRGMQWVRQAPGKGLEWVAGIDDDDNNTWYATAVKGRATISRDNGQSTVRLQLNSLRAEDTGTYYCAKTPTSYYWGAAEIDAWGHGTEVIV
VL: ALTQPSSVSANPGETVKITCSGSSGSYGWYQQKAPGSAPVTVIYDNNNRPSNIPSRFSGSLSGSTNTLTITGVQADDEAVYFCGSYEGSSYVGIFGAGTTLTVL

Experiments:
[1] = target: 6G11 (BI‐1206), full‐length antibody containing the PGLALA Fc mutations (human); test: BLI; 6G11 (5 µg/mL) loaded on Protein A tips; original or mutated S2B scFv 500-7.8 nM in 1:2 dilutions; association and dissociation 180 s each
Sequence of 6G11 (BI‐1206), full‐length antibody containing the PGLALA Fc mutations (human) (heavy, as listed by the source, chain 1 of 2): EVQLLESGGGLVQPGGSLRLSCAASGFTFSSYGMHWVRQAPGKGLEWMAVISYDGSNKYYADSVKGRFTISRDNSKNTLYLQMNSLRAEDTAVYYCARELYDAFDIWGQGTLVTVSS
Sequence of 6G11 (BI‐1206), full‐length antibody containing the PGLALA Fc mutations (human) (light, as listed by the source, chain 2 of 2): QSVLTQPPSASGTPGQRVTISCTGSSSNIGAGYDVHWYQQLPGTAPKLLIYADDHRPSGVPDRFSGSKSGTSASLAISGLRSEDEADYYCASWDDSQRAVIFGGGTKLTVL

[2] = target: 6G11 (BI‐1206), full‐length antibody containing the PGLALA Fc mutations (human); test: ELISA; 6G11 coated (5 µg/mL, MaxiSorp, overnight 4°C); scFv 500 to 0.19 nM, 1 h RT; detection with StrepTactin-HRP

| Binder | fold decrease in affinity against the original S2B [1] | EC50 [2] | further results |
| --- | --- | --- | --- |
| B1 | 6 fold |  |  |
| B2 |  | 28.7 nM |  |
| B3 | 10 fold |  |  |
| B4 |  |  | fold decrease in binding against the original S2B [1]: 4 fold |
| B5 |  | 3.9 nM |  |
